Biological target: Fcγ receptor IIIa (UniProt P08637)
Sequence of UniProt P08637 (P08637 17-208): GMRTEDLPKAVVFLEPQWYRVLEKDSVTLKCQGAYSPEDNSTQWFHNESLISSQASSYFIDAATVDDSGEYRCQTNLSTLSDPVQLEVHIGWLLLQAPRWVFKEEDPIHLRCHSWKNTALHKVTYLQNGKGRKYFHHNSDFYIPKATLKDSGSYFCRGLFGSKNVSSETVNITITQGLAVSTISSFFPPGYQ

ADCC reporter-gene assay (Jurkat-CD16a-FcεRIγ-NFAT-luc effector cells, SK-BR-3 target cells), relative activity by EC50; batch H0323B07 (%afucose 4.2), the reference standard (%relative activity): 100 | ADCC reporter-gene assay, relative activity by EC50; batch H0324B01 (%afucose 4.1) (%relative activity): 96 | ADCC reporter-gene assay, relative activity by EC50; batch H0337B01 (%afucose 2.6) (%relative activity): 82 | ADCC reporter-gene assay, relative activity by EC50; batch H0340B01 (%afucose 2.4) (%relative activity): 73 | ADCC reporter-gene assay, relative activity by EC50; batch H0371B01 (%afucose 2.1) (%relative activity): 91 | ADCC reporter-gene assay, relative activity by EC50; batch H0382B04 (%afucose 3.7) (%relative activity): 84 | ADCC reporter-gene assay, relative activity by EC50; batch H0383B01 (%afucose 1.8) (%relative activity): 78 | ADCC reporter-gene assay, relative activity by EC50; batch H0388B01 (%afucose 2.3) (%relative activity): 81 | ADCC reporter-gene assay, relative activity by EC50; batch H0389B01 (%afucose 1.9) (%relative activity): 76 | ADCC reporter-gene assay, relative activity by EC50; batch H0391B01 (%afucose 2.1) (%relative activity): 71 | ADCC reporter-gene assay, relative activity by EC50; batch H0394B01 (%afucose 2.1) (%relative activity): 73 | ADCC reporter-gene assay, relative activity by EC50; batch H0395B02 (%afucose 2.1) (%relative activity): 76 | ADCC reporter-gene assay, relative activity by EC50; batch H0396B01 (%afucose 2.1) (%relative activity): 71 | ADCC reporter-gene assay, relative maximum response; batch H0323B07 (%afucose 4.2), the reference standard (%relative activity): 100 | ADCC reporter-gene assay, relative maximum response; batch H0324B01 (%afucose 4.1) (%relative activity): 103 | ADCC reporter-gene assay, relative maximum response; batch H0337B01 (%afucose 2.6) (%relative activity): 86 | ADCC reporter-gene assay, relative maximum response; batch H0340B01 (%afucose 2.4) (%relative activity): 88 | ADCC reporter-gene assay, relative maximum response; batch H0371B01 (%afucose 2.1) (%relative activity): 72 | ADCC reporter-gene assay, relative maximum response; batch H0382B04 (%afucose 3.7) (%relative activity): 96 | ADCC reporter-gene assay, relative maximum response; batch H0383B01 (%afucose 1.8) (%relative activity): 70 | ADCC reporter-gene assay, relative maximum response; batch H0388B01 (%afucose 2.3) (%relative activity): 74 | ADCC reporter-gene assay, relative maximum response; batch H0389B01 (%afucose 1.9) (%relative activity): 70 | ADCC reporter-gene assay, relative maximum response; batch H0391B01 (%afucose 2.1) (%relative activity): 78 | ADCC reporter-gene assay, relative maximum response; batch H0394B01 (%afucose 2.1) (%relative activity): 74 | ADCC reporter-gene assay, relative maximum response; batch H0395B02 (%afucose 2.1) (%relative activity): 75 | ADCC reporter-gene assay, relative maximum response; batch H0396B01 (%afucose 2.1) (%relative activity): 80
Substance: Pertuzumab (trademark: Perjeta®) (antibody)

Reference: publication PMC9078787
